In assay [1] the target is ΔEGF/Lam_Celsr3 (mouse Celsr3-Flag lacking all the EGF repeats and laminin domains) (mouse) (UniProt Q91ZI0). In words: co-IP.
Assay [2] deals with ΔLaminin G1_Celsr3 (mouse Celsr3-Flag lacking the laminin G1 domain) (mouse) (UniProt Q91ZI0). Put plainly: co-IP.

B1: mouse Frizzled3 (Frizzled3-HA) (receptor)
chain: HSLFSCEPITLRMCQDLPYNTTFMPNLLNHYDQQTAALAMEPFHPMVNLDCSRDFRPFLCALYAPICMEYGRVTLPCRRLCQRAYSECSKLMEMFGVPWPEDMECSRFPDCDEPYPRLVDLNLVGDPTEGAPVAVQRDYGFWCPRELKIDPDLGYSFLHVRDCSPPCPNMYFRREELSFARYFIGLISIICLSATLFTFLTFLIDVTRFRYPERPIIFYAVCYMMVSLIFFIGFLLEDRVACNASSPAQYKASTVTQGSHNKACTMLFMVLYFFTMAGSVWWVILTITWFLAAVPKWGSEAIEKKALLFHASAWGIPGTLTIILLAMNKIEGDNISGVCFVGLYDVDALRYFVLAPLCLYVVVGVSLLLAGIISLNRVRIEIPLEKENQDKLVKFMIRIGVFSILYLVPLLVVIGCYFYEQAYRGIWETTWIQERCREYHIPCPYQVTQMSRPDLILFLMKYLMALIVGIPSIFWVGSKKTCFEWASFFHGRRKKEIVNESRQVLQEPDFAQSLLRDPNTPIIRKSRGTSTQGTSTHASSTQLAMVDDQRSKAGSVHSKVSSYHGSLHRSRDGRYTPCSYRGMEERLPHGSMSRLTDHSRHSSSHRLNEQSRHSSIRDLSNNPMTHITHGTSMNRVIEEDGTSA
For the molecule B1, the percent reduction of the interaction against wild-type Celsr3 in assay [1] worked out at 68%; in assay [2] it was 66%.

The record behind these values is paper PMC8373119.
